Patent US20240024498A1 (JIANGSU HENGRUI PHARMACEUTICALS, published 2024)
Substitutions are numbered along the chain they refer to. Read-outs that look alike come from different tables or passages of the source. Values belong to the binder of their own block, whether it stands above or below them.

Key:
[1] = molecular target: human Claudin18.2 (human); experiment: cell-based or functional assay
[2] = molecular target: T1, human Claudin18.2 (human); experiment: flow cytometry on HEK293/hClaudin18.2 cells, Scatchard plot
T1 construct: also called hClaudin18.2; huClaudin18.2
Procedure: On the day of experiment, HEK293/hClaudin18.2 cells were collected into a U-bottomed 96-well plate at 1×10⁵ to 2×10⁵ cells per well. A human Claudin18.2 antibody that was 2× diluted serially (12 concentration points) from an initial concentration of 5 μg/mL was added, and the plate was incubated at 4° C. for 1 h. IMAB362 was used as a positive control, and a negative control with no antibody was also provided. The antibody was removed by centrifugation, and FITC anti-human IgG Fc antibody (200×) was added at 100 μL/well. The plate was incubated in the dark at 4° C. for 30 min and washed twice with PBS+2% FBS before flow cytometry analysis. BD FACS CantoII was started and preheated, and then the BD FACSDiva software was run to start a new experiment. […] The samples in the U-bottomed 96-well plate were tested at the saved voltage, and data were recorded. The experimental data were analyzed using Flowjo software to obtain a Geo mean, and an MESF-Geo Mean standard curve was fit according to the instructions for Quantum™ FITC-5 MESF Kit. The molar concentration of the human Claudin18.2 antibody bound to HEK293/hClaudin18.2 cells and the free antibody concentration were calculated according to the concentration fluorescence value of the FITC anti-human IgG Fc antibody, and the Bmax and the dissociation constant KD of the antibody were calculated through Scatchard plots.

[3] = molecular target: T1, human Claudin18.2; experiment: cell-based ELISA on fixed NUGC4 cells stably expressing Claudin18.2
Procedure: (§1) Cell-based ELISA assay was used to test the binding properties of the Claudin18.2 antibodies. The stably transfected Claudin18.2-expressing NUGC4 cells were cultured in a 96-well cell plate (Corning, 3599). When growing at 90% density, the cells were immobilized with 4% paraformaldehyde for 1 h. The plate was washed 3 times with PBST buffer (pH 7.4 PBS containing 0.05% Tween-20), and a PBS-diluted 5% skim milk (powdered skim milk from Brightdairy) blocking solution was added at 200 μL/well. The plate was incubated in a 37° C. incubator for 2.5 h or was let stand at 4° C. overnight (16-18 h) for blocking. After blocking, the blocking solution was removed. The plate was washed 3 times with the PBST buffer, and then a test antibody that was diluted with a sample diluent (pH 7.4 PBS containing 1% skim milk) to different concentrations was added at 50 μL/well. The plate was incubated in a 37° C. incubator for 2 h. […] The plate was incubated at 37° C. for 1 h. The plate was washed 6 times with PBST, and then TMB chromogenic substrate (KPL, 52-00-03) was added at 50 µL/well. The plate was incubated at room temperature for 10-15 min, and the reaction was terminated by adding 1 M H₂SO₄ at 50 μL/well. The absorbance at 450 nm was read using an MD Versa Max™ microplate reader, and the binding EC50 value of the Claudin18.2 antibody to Claudin18.2 was calculated.

[4] = molecular target: T1, human Claudin18.2; experiment: cell-based ELISA (absorbance at 450 nm) on fixed NUGC4 cells stably expressing Claudin18.2
Procedure: as §1

[5] = molecular target: T1, human Claudin18.2; experiment: cell-based or functional assay; remark: listed apart in the source
[6] = molecular target: T1, human Claudin18.2; experiment: cell-based ELISA on fixed NUGC4 cells stably expressing Claudin18.2; remark: listed apart in the source
Procedure: as §1

[7] = molecular target: T1, human Claudin18.2; experiment: cell-based ELISA (absorbance at 450 nm) on fixed NUGC4 cells stably expressing Claudin18.2; remark: listed apart in the source
Procedure: as §1

[8] = molecular target: T1, human Claudin18.2; experiment: cell-based ELISA on fixed NUGC4 cells stably expressing Claudin18.2; remark: listed apart in the source
Procedure: as §1

[9] = molecular target: T1, human Claudin18.2; experiment: cell-based ELISA (absorbance at 450 nm) on fixed NUGC4 cells stably expressing Claudin18.2; remark: listed apart in the source
Procedure: as §1

- ADCC effect, IC50 (FcrR3A-V158-NFAT-RE-Jurkat reporter; NUGC4 cells, high Claudin18.2 expression) [1]: 0.0262 µg/mL
- ADCC effect, IC50 (FcrR3A-V158-NFAT-RE-Jurkat reporter; NUGC4 cells, low Claudin18.2 expression) [1]: 0.0224 µg/mL
- ADCC effect, IC50 (FcrR3A-V158-NFAT-RE-Jurkat reporter; NUGC4 cells, moderate Claudin18.2 expression) [1]: 0.0154 µg/mL
- Kd [2]: 6.8 nM
- EC50 [3]: 0.076 nM
- Emax [4]: 1.44
B1: h1901-11 (antibody, human IgG1, kappa, V domains shown)
VH: EVQLVESGGGLVQPGGSLRLSCAASGFTFSDYGIHWVRQAPGKGLEWIAYISRGSSTIYYADTVKGRFTISRDNAKNSLYLQMTSLRAEDTAVYYCARGGYDTRNAMDYWGQGTTVTVSS
VL: DIVMTQSPDSLAVSLGERATISCKSSQSLLNSGNQKNYLAWYQQKPGQPPKLLIYGASTRASGVPDRFSGSGSGTDFTLTISSLQAEDVAIYHCQNDLYYPLTFGQGTKLEIKR
notes: Humanized antibody of mAb1901, L3 + H3, human IgG1/kappa

B2: ADC-5 (antibody, human IgG1, kappa, V domains shown)
VH: B1 VH
VL: B1 VL
modifications: compound 9-A coupled to sulfhydryl groups after TCEP reduction; mean drug loading n=6.8 per antibody; positions not given
- in vitro cell killing EC50, NUGC4-claudin18.2 high expression cells (CellTiter-Glo) [5]: 3.5 nM
- in vitro cell killing EC50, NUGC4-claudin18.2 low expression cells (CellTiter-Glo) [5]: 142 nM
- in vitro cell killing Emax, NUGC4-claudin18.2 high expression cells (CellTiter-Glo) [5]: 95.9
- in vitro cell killing Emax, NUGC4-claudin18.2 low expression cells (CellTiter-Glo) [5]: 69.9

B3: ADC-4 (antibody, human IgG1, kappa, V domains shown)
VH: B1 VH
VL: B1 VL
modifications: compound 9-A coupled to sulfhydryl groups after TCEP reduction; mean drug loading n=4.06 per antibody; positions not given
- in vitro cell killing EC50, NUGC4-claudin18.2 high expression cells (CellTiter-Glo) [5]: 12 nM
- in vitro cell killing EC50, NUGC4-claudin18.2 low expression cells (CellTiter-Glo) [5]: 299 nM
- in vitro cell killing Emax, NUGC4-claudin18.2 high expression cells (CellTiter-Glo) [5]: 85
- in vitro cell killing Emax, NUGC4-claudin18.2 low expression cells (CellTiter-Glo) [5]: 61

B4: ADC-2 (antibody, human IgG1, kappa, V domains shown)
VH: B1 VH
VL: B1 VL
modifications: compound 9-A coupled to sulfhydryl groups after TCEP reduction; mean drug loading n=7.1 per antibody; positions not given
- in vitro cell killing EC50, NUGC4-claudin18.2 high expression cells (CellTiter-Glo) [5]: 1.9 nM
- in vitro cell killing EC50, NUGC4-claudin18.2 low expression cells (CellTiter-Glo) [5]: 109 nM
- in vitro cell killing EC50, NUGC4-claudin18.2 moderate expression cells (CellTiter-Glo) [5]: 16.8 nM
- in vitro cell killing Emax, NUGC4-claudin18.2 high expression cells (CellTiter-Glo) [5]: 91.1
- in vitro cell killing Emax, NUGC4-claudin18.2 low expression cells (CellTiter-Glo) [5]: 69.8

B5: ADC-3 (antibody, human IgG1, kappa, V domains shown)
VH: B1 VH
VL: B1 VL
modifications: compound 9-A coupled to sulfhydryl groups after TCEP reduction; mean drug loading n=2.51 per antibody; positions not given
- in vitro cell killing EC50, NUGC4-claudin18.2 high expression cells (CellTiter-Glo) [5]: 94 nM
- in vitro cell killing EC50, NUGC4-claudin18.2 low expression cells (CellTiter-Glo) [5]: > 500 nM
- in vitro cell killing Emax, NUGC4-claudin18.2 high expression cells (CellTiter-Glo) [5]: 78.7
- in vitro cell killing Emax, NUGC4-claudin18.2 low expression cells (CellTiter-Glo) [5]: 49

- EC50 [3]: 0.116 nM
- Emax [4]: 1.22
B6: h1901-12 (antibody, human IgG1, kappa, V domains shown)
VH: B1 VH with I48V, I70M
VL: B1 VL
notes: Humanized antibody of mAb1901, L3 + H4, human IgG1/kappa

- EC50 [6]: 0.098 nM
- Emax [7]: 1.4
B7: chimeric antibody ch1901 (antibody, human IgG1, kappa, V domains shown)
VH: EVQLMESGGGLVKPGGSLKLSCAASGFTFSDYGIHWVRQAPEMGLEWIAYISRGSSTIYYADTVKGRFTMSRDNAKNTLFLQMTSLRSEDTAMYYCARGGYDTRNAMDYWGQGTSVTVSS
VL: DIVMTQSPSSLSVSAGEKVTMSCKSSQSLLNSGNQKNYLAWYQQKPGQPPKLLIYGASTRASGVPDRFTGSGSGTDFTLTISSVQAEDLAIYHCQNDLYYPLTFGAGTKLELKR
notes: Murine mAb1901 variable regions on human IgG1 / kappa constant regions

- ADCC effect, IC50 (FcrR3A-V158-NFAT-RE-Jurkat reporter; NUGC4 cells, high Claudin18.2 expression) [1]: 0.133 µg/mL
- ADCC effect, IC50 (FcrR3A-V158-NFAT-RE-Jurkat reporter; NUGC4 cells, low Claudin18.2 expression) [1]: 0.183 µg/mL
- ADCC effect, IC50 (FcrR3A-V158-NFAT-RE-Jurkat reporter; NUGC4 cells, moderate Claudin18.2 expression) [1]: 0.21 µg/mL
- EC50 [8]: 0.187 nM
- Kd [2]: 10.2 nM
- EC50 [3]: 0.086 nM
- EC50 [6]: 0.108 nM
- Emax [7]: 1.18
- Emax [9]: 0.88
- Emax [4]: 1.11
B8: IMAB-362 (antibody, human IgG1, kappa, V domains shown)
VH: QVQLQQPGAELVRPGASVKLSCKASGYTFTSYWINWVKQRPGQGLEWIGNIYPSDSYTNYNQKFKDKATLTVDKSSSTAYMQLSSPTSEDSAVYYCTRSWRGNSFDYWGQGTTLTVSS
VL: DIVMTQSPSSLTVTAGEKVTMSCKSSQSLLNSGNQKNYLTWYQQKPGQPPKLLIYWASTRESGVPDRFTGSGSGTDFTLTISSVQAEDLAVYYCQNDYSYPFTFGSGTKLEIKR
notes: Positive control antibody, from WO2016166122; also called positive control antibody

- EC50 [6]: 0.074 nM
- Emax [7]: 1.27
B9: chimeric antibody ch1902 (antibody, human IgG1, kappa, V domains shown)
VH: EVQLQESGAELVKPGASVKLSCKASGYIFTSYWMHWVKQRPGQGLEWIGMIHPNSGSTNYNEKFKGKATLTLDKSSSTAYMQLSSLPSEDSAVYYCARLKTGNSFDYWGQGTTLTVSS
VL: B8 VL with M4L, V91I, D97A, S99T
notes: Murine mAb1902 variable regions on human IgG1 / kappa constant regions
